Numbering of substitutions follows the chain as printed.

B1: MTK-228 (antibody, human IgG1, V domains shown)
VH: QDQLQQSGPELVKPGASVKISCKASGYSFTSYYIHWVKQRPGQGLEWVGWIFPGNGNTKYNERFKGKATLTADTSSSTAYMQLSSLTSEDSAVYYCARLGLIYALDYWGQGTSVTVSS
VL: DAVMTQTPLSLPVSLGDQASISCRSSQSLENSNGNTYLHWYLQKPGQSPQLLIYRVSNRFSGVLDRFSGSGSGTDFTLKISRVEAEDLGVYFCLQVTHVPFTFGSGTKLEIK
B2: MTK-218 (antibody, human IgG1, V domains shown)
VH: B1 VH with D2V, A16T, E46D, V48I, G56R, K59Q, R63K
VL: B1 VL with N35H, L64Q
B3: MTK-226 (antibody, human IgG1, V domains shown)
VH: B1 VH with D2V, V48I, R63N, K65R
VL: B1 VL with N31S, K79Q
B4: MTK-203 (antibody, human IgG1, V domains shown)
VH: QVQLQQPGAELVKPGASVKVSCKASGYTFTNYWMHWVKQRPGQGLEWIGRIHPFDTETNDNQKFKGKATLTVDKSSSTAYMQLSSLTSEDSAVYYCVIPANGGFAYWGQGTLVTVSA
VL: ETTVTQSPASLSVATGEKVTIRCITSTDIGDDMNWYQQKPGEPPKVLISEGNSLRPGVPSRFSSSGYGTDFVFTIENTLSEDVADYFCLQSDNLPLTFGSGTKLEIK
B5: MTK-230 (antibody, human IgG1, V domains shown)
VH: EVQLQQSGPELVKPGASVRIPCKASGYTFSDYNMDWVKQSHGKSLEWIGNINPNIGGTIYSQKFKGKATLTVDKSSSTAYMELRSLTSEDTAVYYCARGDYGFASWGQGTLVTVSA
VL: DIVLTQSPASLTVSLGQRATISCRASRSVSTSGYSYMHWYQQKPGQPPKLLIYLASNLESGVPARFSGSRSGTDFTLNIHPVEEEDAATYYCQHSREYPFTFGSGTKLEIK
B6: MTK-212 (antibody, human IgG1, V domains shown)
VH: QVQLQQSGPELVKPGASVKISCKASGYAFSSSWVNWVKQRPGKGLEWIGRIYPGDGDSNYNGNFKGKATLTADKSSNTAYLQLSSLTSEDSAVYFCARKSHFIYYTLDYWGQGTPVTVSS
VL: DIVMTQSHKFKSTSVGDRVSIACKASQDVGTSVAWYQQKPGKSPKLLIYWASSRHTGVPDRFTGSGSGTDFTLTISNVQSEDLTDYFCQQYSTYPYTFGGGTKLEIK
B7: MTK-227 (antibody, human IgG1, V domains shown)
VH: EVKLVESGGGLVQPGGSLSLSCAASGFTFTDNYMTWVRQPPGKALEWLGFSRNKANGYTTEYSASVKGRFTISRDSSQSILYLQMNALRAEDSGTYYCARFPPHYYAGGYFDVWGTGTTVTVSS
VL: DIQMTQSPASLSASVGETVTITCRASENIYSYLAWYQQKQGKSPQLLVYNAKTLAEGVPSRFSGSGSGTQFSLKINSLQPADFGSYYCQHYYRTPPTFGGGTKLEIK
B8: MTK-209 (antibody, human IgG1, V domains shown)
VH: QVQLQQPGAELVKPGASVKVSCKASGYTFTNYWIHWVKQRPGQGLEWIGRIHPFDSEPNYNQKFKGKATLTVDKSSSTAYMHLTSLTSEDSAVYYCALASFAYWGQGTLVTVSA
VL: ETTVTQSPASLSMAMGEKATIRCITSTDIDDKMNWYQQKPGKPPKLLISAGNTLRPGVPSRFSSSGYGTDFVLTVENMLSEDVADYYCLQGGALPLTFGSGTKLEIK
B9: MTK-211 (antibody, human IgG1, V domains shown)
VH: QVQLQQSGAELMKPGASVKLSCKATGYTFTGYWIEWVKQRPGHGLEWIGEILPGSGGSNYNEKFKGKATFTADTSSNTAYIQLSSLTTEDSAIYCCARGEPSYFSDAGFAYWGQGTLVTVSA
VL: QIVLTQSPAVMSASPGEKVTMTCSASSSITYMHWYQQKPGTSPKRWIYDTSKLASGVPARFSGSGSGTSYFLTISSMEAEDVATYYCHQRSTYPYTFGGGTKLEIM
B10: MTK-219 (antibody, human IgG1, V domains shown)
VH: QVQLQQSGADLMKPGASVKLSCKATGNTFTGYWIEWVKQRPGHGLEWIGEILTGSGSTNYNERFKGKATFTADTSSNTAYMQLSSLTTEDSAIYYCAGSYFTNSWFPYWGQGSLVTVSA
VL: DIVLTQSPASLAVSLGQRATISCRASESVDSYGNSFMHWYQQKPGQPPKLLIYRAYTLESGIPARFSGSGSRTDFTLTINPVEADDVATYYCQQSNEDPRTFGGGTKLEIK
B11: MTK-222 (antibody, human IgG1, V domains shown)
VH: B10 VH with N27Y, T58S, R63K, T74S, Y80F, F101Y, T102S
VL: B10 VL with A9V, N34S, Y56S, T57S, A84T
B12: MTK-210 (antibody, human IgG1, V domains shown)
VH: QVQLQQSGPELVKPGASVKISCKASDYEFSRSWMNWVKQRPGKGLEWIGRIYPGDGDTNYNGKFKGKATLTADKSSNTAYMQLNSLTSEDSAVYFCARKGGYYYSISNYFDYWGQGTTLTVSS
VL: QIVLTQSPAIMSASPGVKVTMTCSASSSVSYMHWYQQKPGSSPRLLIYDTSNLASGVPVRFSGSGSGTSYSLTISRMEAEDAATYYCQQWSSYPPYTFGGGTKLEIK
B13: MTK-229 (antibody, human IgG1, V domains shown)
VH: QVQLQQSGPELVKPGASVKISCKASGYEFSRSWMNWVKQRPGKGLEWIGRIYPGDGDTNYKGKLKGQATLTADKSSSTAYMQLSSLTFEDSAVYFCARGGGYYYDSRYEGFVYWGQGTVVTVSA
VL: QIVLTQSPAIMSASPGEEVTMTCSASSSVSYMHWYQQKSGTSPKRWIYDTSKLASGVSGRFSGSGSGTSYSLTISSMEAEDAATYYCQQWSSNPPITFGAGTKLELK
B14: MTK-206 (antibody, human IgG1, V domains shown)
VH: QVQLQQSGAELARPGASVKMSCKASGYTFTSYTMHWVKQRPGQGLEWIGYINPSSGYIKNSQKFKDKATLTADKSSSTAYMQLSSLTSEDSAVYYCARTVYGYYGSSPDYWGQGTTLTVSS
VL: DIQMTQSPSSLSASLGERVSLTCRASQDIGSNLNWLQQEPDGTIKRLIYATSSLESGVPKRFSGSRSGSDYSLTISSLESEDFVDYYCLQYDSSPWTFGGGTKLEIK

The target in one experiment is T1, recombinant murine MerTK extracellular domain (mouse, UniProt Q60805 19-497).
T1 construct: also called Mouse MerTK; murine MerTK ECD; not shown: polyHis or TEVS/Thrombin/murine IgG2a-Fc tag
T1 sequence: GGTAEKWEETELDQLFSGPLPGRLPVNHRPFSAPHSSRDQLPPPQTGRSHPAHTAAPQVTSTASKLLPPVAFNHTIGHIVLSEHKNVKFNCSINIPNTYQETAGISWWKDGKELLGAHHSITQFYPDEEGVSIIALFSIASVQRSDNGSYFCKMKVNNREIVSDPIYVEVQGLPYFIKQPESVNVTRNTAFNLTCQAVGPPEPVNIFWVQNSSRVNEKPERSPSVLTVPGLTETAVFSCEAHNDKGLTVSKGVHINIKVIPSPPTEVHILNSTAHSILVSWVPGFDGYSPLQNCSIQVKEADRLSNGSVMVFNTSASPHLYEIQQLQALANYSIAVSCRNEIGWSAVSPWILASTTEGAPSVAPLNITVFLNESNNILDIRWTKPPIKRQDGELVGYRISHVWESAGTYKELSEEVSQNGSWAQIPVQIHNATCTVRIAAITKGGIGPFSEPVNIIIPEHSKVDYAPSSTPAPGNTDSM
The experiment can be described thus: SPR Carterra LSA.
For B1, the “Ratio of KD for Mouse vs Human MerTK” value was 0.04 ratio.

With B2, the “Ratio of KD for Mouse vs Human MerTK” value was 0.1 ratio.

Regarding B3, the “Ratio of KD for Mouse vs Human MerTK” value turned out to be 0.05 ratio.

In the case of B4, the “Ratio of KD for Mouse vs Human MerTK” value was determined as 12.5 ratio.

In the case of B5, the “Ratio of KD for Mouse vs Human MerTK” value is 3.5 ratio.

Take B6: the “Ratio of KD for Mouse vs Human MerTK” value turned out to be 0.13 ratio.

B7: the “Ratio of KD for Mouse vs Human MerTK” value came to 0.08 ratio.

With B8, the “Ratio of KD for Mouse vs Human MerTK” value was 35.4 ratio.

The next experiment concerns the target T2, His tag-conjugated recombinant ProS (human, UniProt P07225 42-676, limits assumed).
T2 construct: bought; also called Protein S; ProS1 (R&D systems, Cat #9489-PS-100)
T2 sequence (looked up): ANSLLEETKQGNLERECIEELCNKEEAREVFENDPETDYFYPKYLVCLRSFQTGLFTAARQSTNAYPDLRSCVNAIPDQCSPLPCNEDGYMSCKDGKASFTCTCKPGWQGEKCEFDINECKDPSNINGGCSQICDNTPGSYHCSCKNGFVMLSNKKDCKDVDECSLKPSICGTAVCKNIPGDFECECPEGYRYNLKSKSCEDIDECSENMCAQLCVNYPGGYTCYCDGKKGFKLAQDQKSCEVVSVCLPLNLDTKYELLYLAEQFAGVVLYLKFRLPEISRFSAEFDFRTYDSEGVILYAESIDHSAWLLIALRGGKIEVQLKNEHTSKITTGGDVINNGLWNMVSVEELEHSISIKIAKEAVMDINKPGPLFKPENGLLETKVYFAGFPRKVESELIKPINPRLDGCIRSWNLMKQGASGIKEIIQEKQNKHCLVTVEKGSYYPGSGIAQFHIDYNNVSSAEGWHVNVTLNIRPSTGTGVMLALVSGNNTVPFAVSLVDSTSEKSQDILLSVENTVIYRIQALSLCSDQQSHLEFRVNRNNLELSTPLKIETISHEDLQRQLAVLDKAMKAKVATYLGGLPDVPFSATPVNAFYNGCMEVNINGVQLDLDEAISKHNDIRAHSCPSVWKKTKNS
The experiment can be described thus: ELISA, captured Ab, ProS-His 10 ug/ml, no MerTK. For orientation: ELISA stands for enzyme-linked immunosorbent assay.
Regarding B9, the binding result is “binds”.

A further experiment has as its target T3, MerTK N-terminal ECD Half-and-half chimera (human).
T3 construct: tested as culture supernatant; also called MerTK N-term half-and-half chimera; MerTK N-terminal ECD (NT-Ig1-Ig2) + Axl C-terminal ECD (FN1-FN2-JM)
T3 chain: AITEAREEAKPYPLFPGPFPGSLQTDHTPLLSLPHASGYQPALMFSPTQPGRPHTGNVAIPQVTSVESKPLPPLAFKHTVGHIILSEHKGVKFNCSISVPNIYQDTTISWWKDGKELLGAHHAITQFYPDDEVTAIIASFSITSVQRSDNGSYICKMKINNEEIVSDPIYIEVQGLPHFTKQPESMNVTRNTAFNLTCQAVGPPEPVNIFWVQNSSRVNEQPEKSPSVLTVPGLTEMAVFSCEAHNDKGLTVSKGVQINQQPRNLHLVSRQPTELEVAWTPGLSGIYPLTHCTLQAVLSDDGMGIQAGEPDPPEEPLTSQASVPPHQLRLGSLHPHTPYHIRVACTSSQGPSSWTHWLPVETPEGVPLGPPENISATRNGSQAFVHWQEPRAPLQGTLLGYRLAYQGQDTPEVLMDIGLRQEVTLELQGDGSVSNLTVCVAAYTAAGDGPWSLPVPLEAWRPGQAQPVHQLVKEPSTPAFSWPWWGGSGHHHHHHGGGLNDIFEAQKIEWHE
The experiment is described as follows: SPR, construct supernatant over immobilised Ab. On the procedure: Binding of anti-MerTK antibodies of the present disclosure to these domain-swapped chimera or deletion mutants was tested by Surface Plasmon Resonance (SPR) using Carterra LSA. Purified anti-MerTK antibodies were immobilized in duplicate on a HC30M chip (Carterra) by amine coupling, following the manufacturer's instructions (described previously).
Supernatants containing the constructs were diluted 1:1 with running buffer containing 0.5 mg/mL BSA (HBS-TE, Carterra; BSA, Sigma) and injected over the immobilized antibodies. The surface was regenerated with 10 mM Glycine pH2.0 after each construct injection. Sensorgrams were analyzed using Carterra Epitope software to identify patterns of construct binding. Loss of binding to MerTK constructs with domains deleted or swapped in from Axl and/or gain of binding to Axl constructs with MerTK domains swapped in were evaluated. Data from these studies were used to construct a domain binding map for anti-MerTK antibodies and their binding to various domains of human MerTK.
As to B10, the binding result was “no binding”.

On to B11, for which the binding result is recorded as “no binding”.

Consider B12, for which the binding result is listed as “no binding”.

Regarding B13, the binding result is “no binding”.

Turning to B14, the binding result was “no binding”.

B4: the binding result is listed as “no binding”.

With B5, the binding result is on record as “no binding”.

As for B6, the binding result is “no binding”.

As for B7, the binding result is listed as “no binding”.

As to B8, the binding result is on record as “no binding”.

The values above are taken from US20240294650A1 (Alector, published 2024).
